“Also recorded” adds a separate entry of the source. Values belong to the molecule of their own block, whether it stands above or below them.
Legend:
[1] = biological target: native TrkB receptors in DRG neurons (mouse) (mouse) (UniProt P15209); test: Qdot 655 conjugated ligand on dissociated DRG of TrkBCreERT2::Rosa26RFP mice, counting of labelled cells
IL31 Receptor A (IL31RA) = biological target: T1, IL31 Receptor A (IL31RA) (Mus musculus, UniProt Q8K5B1); test: In vivo skin labelling after intradermal injection; conditions: wildtype mice; intradermal injection into back skin
T1 construct: from tissue; host or cells: mouse back skin (nape of the neck), in vivo
T1 sequence (Q8K5B1 19-716): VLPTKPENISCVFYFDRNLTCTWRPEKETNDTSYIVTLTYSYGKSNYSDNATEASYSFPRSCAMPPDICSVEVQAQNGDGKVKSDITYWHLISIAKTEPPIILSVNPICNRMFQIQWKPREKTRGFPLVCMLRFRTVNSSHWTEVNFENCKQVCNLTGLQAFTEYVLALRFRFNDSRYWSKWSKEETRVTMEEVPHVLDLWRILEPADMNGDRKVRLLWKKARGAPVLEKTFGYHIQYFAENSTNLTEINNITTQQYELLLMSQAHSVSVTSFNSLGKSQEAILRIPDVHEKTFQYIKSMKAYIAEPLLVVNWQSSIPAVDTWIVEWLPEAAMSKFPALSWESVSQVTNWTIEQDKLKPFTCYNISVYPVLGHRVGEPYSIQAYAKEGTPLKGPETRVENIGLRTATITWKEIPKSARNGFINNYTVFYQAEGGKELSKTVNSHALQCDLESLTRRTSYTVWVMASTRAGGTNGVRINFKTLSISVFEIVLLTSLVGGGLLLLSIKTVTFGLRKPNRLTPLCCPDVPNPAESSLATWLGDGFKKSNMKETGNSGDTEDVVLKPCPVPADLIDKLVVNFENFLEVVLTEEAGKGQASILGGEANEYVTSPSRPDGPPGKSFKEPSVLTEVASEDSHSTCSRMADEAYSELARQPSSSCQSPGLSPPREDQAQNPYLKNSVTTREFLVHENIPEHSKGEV
T1 sequence (O70458 24-971 partner): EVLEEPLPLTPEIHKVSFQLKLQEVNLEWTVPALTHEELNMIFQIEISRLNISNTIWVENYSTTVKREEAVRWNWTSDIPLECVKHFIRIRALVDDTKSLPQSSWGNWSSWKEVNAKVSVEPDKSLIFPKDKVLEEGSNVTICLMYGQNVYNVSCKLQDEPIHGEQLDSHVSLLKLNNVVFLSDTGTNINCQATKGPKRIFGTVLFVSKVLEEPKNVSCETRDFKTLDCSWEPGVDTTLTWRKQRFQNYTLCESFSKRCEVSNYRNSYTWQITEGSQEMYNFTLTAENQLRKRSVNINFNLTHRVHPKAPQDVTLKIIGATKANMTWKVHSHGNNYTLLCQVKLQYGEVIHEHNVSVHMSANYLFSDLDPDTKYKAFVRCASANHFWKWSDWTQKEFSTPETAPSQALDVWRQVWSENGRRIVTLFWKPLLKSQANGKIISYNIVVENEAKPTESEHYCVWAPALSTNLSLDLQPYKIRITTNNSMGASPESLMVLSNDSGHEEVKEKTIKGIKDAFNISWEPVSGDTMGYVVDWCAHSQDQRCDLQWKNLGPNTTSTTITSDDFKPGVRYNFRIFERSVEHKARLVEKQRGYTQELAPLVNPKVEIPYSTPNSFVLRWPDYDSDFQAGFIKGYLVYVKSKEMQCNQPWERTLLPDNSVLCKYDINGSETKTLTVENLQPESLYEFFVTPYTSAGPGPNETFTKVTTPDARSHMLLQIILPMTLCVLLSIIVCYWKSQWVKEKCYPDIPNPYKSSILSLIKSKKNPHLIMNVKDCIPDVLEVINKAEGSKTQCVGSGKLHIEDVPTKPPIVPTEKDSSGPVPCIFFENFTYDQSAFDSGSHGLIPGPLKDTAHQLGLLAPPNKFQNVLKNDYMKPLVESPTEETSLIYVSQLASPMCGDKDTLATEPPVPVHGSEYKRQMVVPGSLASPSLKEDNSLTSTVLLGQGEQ
From the text: The inventors produced recombinant IL31 with a C-terminal fusion of SNAP (IL31^SNAP) in E. Coli. […] To determine whether IL31^SNAP was functional the inventors first performed binding studies in primary keratinocyte cultures. IL31^SNAP was labelled in vitro with BG-Surface549 and applied to keratinocytes from wildtype or IL31 Receptor A (IL31RA) knockout mice (IL31RA^−/−). […] The inventors further examined IL31^SNAP labelling in vivo by injecting IL31^SNAP-Surface549 intradermally into the back skin of wild type and IL31RA^−/− mice. […] Finally, the inventors determined whether IL31^SNAP was active by quantifying scratching behavior in mice upon intradermal injection. […] Thus the IL31^SNAP retains the functional properties of native IL31.
For skin labelling, intradermal injection of 5 μM IL31^SNAP coupled with 5 μM BG549surf was performed in the nape of the neck. After […] (30 min) skin was collected, fix in PFA 4% overnight, OCT-embedded and cryo-sectioned (25 μm).

[2] = system: baseline sensory behavior; test: Behavioral responses under basal conditions after photoablation in the paw; type: in vivo, mouse
Protocol: (§1) The inventors next sought to assess the therapeutic potential of this approach by investigating the effects of BDNF^SNAP-IR700 mediated photoablation in wildtype mice with neuropathic pain. Upon establishment of robust mechanical allodynia three days after SNI, a range of concentrations of BDNF^SNAP-IR700 was injected into the ipsilateral paw of injured mice and the skin illuminated with different light intensities. […] It was examined whether such pronounced effects were also evident in other types of neuropathic pain. […] To determine the selectivity of this approach, the inventors further assessed the effects of BDNF^SNAP-IR700 mediated photoablation on behavioral responses under basal conditions. No deficits in sensitivity to cold, heat, or pinprick upon treatment were observed (FIG. 8f to h). Responses to cotton swab were also unaffected by photoablation (FIG. 3i), perhaps because the skin area that is stimulated in this test extends beyond the zone of illumination.

TrkB+ neurons [3] = test: Spared Nerve Injury (SNI) model, photoablation in the paw; type: in vivo, mouse
From the text: Next neuropathic pain was induced in mice using the Spared Nerve Injury (SNI) model. Control mice developed a profound mechanical hypersensitivity in the sural nerve territory of the paw to both von Frey filaments and dynamic brush stimuli (FIGS. 6D and E). […] The inventors performed further experiments in TrkBCreERT2::Rosa26ChR2 mice to optogenetically activate these neurons. Three days after injury it was observed that selective stimulation of TrkB neurons with light evoked behavior indicative of pain. This was evident as a prolonged paw withdrawal from the stimulation, lifting of the paw and licking of the illuminated area (FIG. 6F) that continued for several minutes after light application. Such behavior persisted throughout the 2 weeks observation period and was never observed in control mice (FIG. 6F).
as §1

TrkB sensory fibers = test: Behavioral sensitivity after photoablation in the sciatic nerve; type: in vivo, mouse
TrkB+ neurons [4] = test: Streptozotocin model of painful diabetic neuropathy; type: in vivo, mouse
Protocol: as §1

skin cell types = conditions: mouse, in vivo
[5] = system: HEK293T cells expressing TrkB/p75; test: BDNF^SNAP-IR700 photoablation of HEK293T cells (propidium iodide); type: cell-based
From the text: In initial experiments BDNF^SNAP-IR700 was applied to HEK293T cells expressing TrkB/p75 and cell death assayed following near infrared illumination.

TrkB positive afferents = test: Innervation of skin and DRG neuron counts after photoablation; type: in vivo, mouse
From the text: Prior to photoablation, TrkB positive lanceolate endings were detected around hair follicles (FIG. 9a) and innervating Meissner corpuscles in the plantar surface of the paw. […] It was further investigated whether loss of TrkB^CreERT2 neurons was also evident at the level of the cell soma by analyzing the number of TrkB^CreERT2 positive neurons in the DRG.

TrkB+ neurons [6] = test: Paclitaxel model of chemotherapy induced neuropathic pain; type: in vivo, mouse
Protocol: as §1

[7] = SNI mice, injection into ipsilateral paw and illumination
[8] = injection into sciatic nerve, nerve illuminated

Sequence of native TrkB receptors in DRG neurons (mouse) (mouse) (P15209 32-821): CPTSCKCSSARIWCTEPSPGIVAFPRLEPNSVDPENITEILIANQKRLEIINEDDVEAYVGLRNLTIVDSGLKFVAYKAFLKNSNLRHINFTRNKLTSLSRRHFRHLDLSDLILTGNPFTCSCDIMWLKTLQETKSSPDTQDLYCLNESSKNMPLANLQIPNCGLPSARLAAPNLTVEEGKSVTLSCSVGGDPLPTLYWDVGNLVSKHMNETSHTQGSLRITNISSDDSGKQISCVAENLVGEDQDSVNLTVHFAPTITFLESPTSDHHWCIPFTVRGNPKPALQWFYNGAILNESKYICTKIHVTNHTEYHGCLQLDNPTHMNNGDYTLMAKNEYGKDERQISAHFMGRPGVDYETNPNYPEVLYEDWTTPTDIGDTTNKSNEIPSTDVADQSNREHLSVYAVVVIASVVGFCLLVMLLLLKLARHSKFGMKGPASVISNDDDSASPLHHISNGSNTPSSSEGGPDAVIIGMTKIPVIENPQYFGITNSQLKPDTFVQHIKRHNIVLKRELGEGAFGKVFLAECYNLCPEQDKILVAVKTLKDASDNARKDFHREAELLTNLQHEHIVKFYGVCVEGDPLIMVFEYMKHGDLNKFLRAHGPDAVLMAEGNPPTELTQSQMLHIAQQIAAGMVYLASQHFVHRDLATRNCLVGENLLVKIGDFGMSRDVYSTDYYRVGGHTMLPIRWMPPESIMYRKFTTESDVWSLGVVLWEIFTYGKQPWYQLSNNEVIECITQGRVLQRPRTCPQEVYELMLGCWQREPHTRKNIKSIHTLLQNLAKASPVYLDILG

overlap between BDNF^SNAP and TrkBCreERT2 positive cells [1]: > 95%
Molecule: BDNF^SNAP (ligand)

fluorescent signal in cells in skin sections (IL31 Receptor A (IL31RA)): fluorescent signal was observed
B1: IL31^SNAP-Surface549: IL31^SNAP labelled in vitro with BG-Surface549 (conjugate)
chain: TCSLSFGAPISKEDLRTTIDLLKQESQDLYNNYSIKQASGMSADESIQLPCFSLDREALTNISVIIAHLEKVKVLSENTVDTSWVIRWLTNISCFNPLNLNISVPGNTDESYDCKVFVLTVLKQFSNCMAELQAKDNTTC
modifications: left off: small tags and cut ends

B2: BDNF^SNAP-IR700: BDNF^SNAP conjugated in vitro to benzylguanine modified IRDye®700 DX phthalocyanine (conjugate, UniProt P23560 19-247, looked up)
Neurotrophic factor BDNF …: APMKEANIRGQGGLAYPGVRTHGTLESVNGPKAGSRGLTSLADTFEHVIEELLDEDQKVRPNEENNKDADLYTSRVMLSSQVPLEPPLLFLLEEYKNYLDAANMSMRVRRHSDPARRGELSVCDSISEWVTAADKKTAVDMSGGTVTVLEKVPVSKGQLKQYFYETKCNPMGYTKEGCRGIDKRHWNSQCRTTQSYVRALTMDSKKRIGWRFIRIDTSCVCTLTIKRGR
modifications: C-terminal SNAP tag; IRDye700DX conjugate
notes: BDNF^SNAP conjugated in vitro to benzylguanine modified IRDye®700 DX phthalocyanine
responses to cotton swab [2]: unaffected; also recorded: does not affect baseline sensory behavior responses | sensitivity to cold (acetone drop test) [2]: No deficits; also recorded: does not affect baseline sensory behavior responses | sensitivity to heat (hot plate test) [2]: No deficits; also recorded: does not affect baseline sensory behavior responses | sensitivity to pinprick [2]: No deficits; also recorded: does not affect baseline sensory behavior responses | cotton swab evoked allodynia (TrkB+ neurons [3]; [7]): concentration and illumination dependent rescue; also recorded: reversed by photoablation | dynamic brush evoked allodynia (TrkB+ neurons [3]; [7]): concentration and illumination dependent rescue; also recorded: dose dependent reversal of mechanical hypersensitivity | von Frey withdrawal thresholds (TrkB+ neurons [3]; [7]): concentration and illumination dependent rescue; also recorded: dose dependent reversal of mechanical hypersensitivity | persistence of rescue (TrkB+ neurons [3]; after a single treatment regime): more than 3 weeks | light driven nocifensive behavior (TrkB sensory fibers; TrkB^CreERT2::Rosa26^ChR2 mice with SNI, sciatic nerve photoablation): significant reduction in light driven nocifensive behavior; also recorded: reduced by nerve photoablation | behavioral response to cooling (acetone drop test) (TrkB sensory fibers; injection into sciatic nerve at mid-thigh level, nerve illuminated): normal; also recorded: not altered by nerve photoablation | behavioral response to heating (radiant heat test) (TrkB sensory fibers; [8]): normal; also recorded: not altered by nerve photoablation | behavioral response to pinprick (TrkB sensory fibers; [8]): normal; also recorded: not altered by nerve photoablation | sensitivity to cotton swab (TrkB sensory fibers; [8]): reduced by nerve photoablation | return to injury levels (TrkB+ neurons [4]): ≤ 20 days | time of peak reversal (TrkB+ neurons [4]): around 10 days post treatment | mechanical hypersensitivity (TrkB+ neurons [4]; 5 μM at 200 J/cm^2): marked reversal of mechanical hypersensitivity; also recorded: reverses mechanical allodynia | number of CD34 positive cells in the skin (skin cell types): significantly reduced the number of CD34 positive cells | numbers of Merkel cells, keratinocytes, dendritic and dermal antigen presenting cells in the skin (skin cell types): did not alter their numbers | cell death after near infrared illumination ([5]; HEK293T cells expressing TrkB/p75, 24 hours after brief illumination): substantial cell death | cell death after near infrared illumination ([5]; mock transfected HEK293T cells): not evident | innervation of hairy and glabrous skin (TrkB positive afferents; 7 days after photoablation (13 days post-SNI)): selective loss of TrkB fibers but persistent innervation by PGP9.5 fibers; also recorded: Substantial loss of TrkB^CreERT2 positive afferents (red), but persistence of other fibers | proportion of TrkB neurons in the DRG (TrkB positive afferents; 10 days after photoablation): No differences in the proportion of TrkB neurons | innervation of skin by TrkB positive fibers (TrkB positive afferents; 24 days post-photoablation): TrkB positive fibers were again seen innervating their appropriate end organs; also recorded: Reinnervation of skin by TrkB^CreERT2 afferents | return to injury levels (TrkB+ neurons [6]): ≤ 20 days | time of peak reversal (TrkB+ neurons [6]): around 10 days post treatment | mechanical hypersensitivity (TrkB+ neurons [6]; 5 μM at 200 J/cm^2): marked reversal of mechanical hypersensitivity; also recorded: reverses mechanical allodynia
